{"source": "the DeepSol protein solubility set"}
{"assay": "soluble on expression in E. coli; label from the status in PepcDB or PDB records"}
{"sequence": "MSLEKVLVIVGPTAVGKTALSIALAKKFNGEIISGDSMQVYRSLDIGTAKVTETEKEGIPHYLIDCREVSETYSAADFQKEGRQKIKEITEKGKLPIIVGGTGLYIQSLLYDFQLGSREIDDSPEIRETYNLFAEEKGNQALWLLLQQKDPLAANSIHFNNRKKVIRALEVFDKTGYSILTPKEKPARLYDYYLLGLETDRALLYERINQRVDQMMTEGLLEEAKQMFQQPHAQAAQGIGYKEFFPYFSGEQSLEMAVETVKQQSRRYAKRQLTWFRNRMAAHWWNLVQQPTDLPKLEKEVAEWLQQKESEEGHHHHHH", "soluble on expression in E. coli": "soluble"}
{"sequence": "MSLEKVQLPSVPAFKGHSFLAFPTLRAYHTLRLAMEFRALETEGLLLYNGNARGKDFLALALLDGHVQFRFDTGSGPAVLTSLVPVEPGRWHRLELSRHWRQGTLSVDGEAPVVGESPSGTDGLNLDTKLYVGGLPEEQVATVLDRTSVGIGLKGCIRMLDINNQQLELSDWQRAVVQSSGVGEEGHHHHHH", "soluble on expression in E. coli": "soluble"}
{"sequence": "MSLELFRSKTCALCKGRKLMCGRPRCPILEKFRVAKSVESKINKKEIFGASPPSVFVGEFGYPNVRIGPMVPPVEGDTSFMDDPSRWENVTILEIMEYRSMLVMGETNAHVQVKKNLNFLTHIQELAMANKPVDSEILLKKTPKLDLITGGFTPPVGPRETMLKFKLAENPKIPKKTDYIVNDELKANEGMISLYDSGFDEYYIIKLLSTGLLGVNKKLVPTKWSITAAQDLLGKYVKKSILEYSQINEYEVYFKNFLGNRYAVLLIPDIYAYEMLEVWLKGSLFSGESYNVLSDFEDTTGMKGYADEITGAFYACRLSILEYLKKRKKQAKILVFREITPEYYAPVGVWQIRTGVKLAMENRVGRFNNLKSALESIKKHLEVPIDDYKTKSKILKSNDRQITLDKFFEGHHHHHH", "soluble on expression in E. coli": "not soluble"}
{"sequence": "MSLELPSFIFQAQENLVERPWGGEWIALLKGFRQSGIGESWEFSAHTSRPSTVLVKGQQLSMIELFSKHRDELLGRAAEKFSKFPILVRLIDAASPTQVHVHPSDKAAESLGEAEGGVESAWLVFNKGKAYAGFKEDVKIEELEEKLKEEDFDFKTLLNTFETTPYDTFVIRPGIPHAGEGLRVLEVSSNSTLAYFFNENDWEKVKKVLNTKKVEEFEVKGKKGMAETENFGLEVVDVTGTAEIKTGGVMNILYAAEGYFILRGKETADLHRGYSCLVPASTDSFTVESERGKIVRIYLKVEGGSHHHHHH", "soluble on expression in E. coli": "soluble"}
{"sequence": "MSLENCKKVNYERVEKERESGSSISIRNFKREAYDSSGQLQWELRANESFVYVNENKTTFYDIDFDQYEAGKFKSKLLAEKGEINHKTRLMLLEGKILLKTDDHKILTAKTMEYNMDTKKLVSDSEVSVSADGTTIRGIGLRADKDLNKFTILKPTAITQGGTNPLKAAGSPEGHHHHHH", "soluble on expression in E. coli": "soluble"}
{"sequence": "MSLENIRNIAVIAHVDHGKTTMVDELLKQSGTFSEREQISERVMDSNDIEKERGITILSKNTAINYKGTKINIIDTPGHADFGGEVERVLKMIDGVLLLVDAQEGVMPQTKFVVKKALSLGLKPIVVINKIDKPAADPERVINEIFDLFVALDANDEQLDFAIVYAAAKNGYAKLDLNDESDNMEPLFKTILERVPAPSGSDENPLQLQVFTLGYDNFVGKIGIARIFNGVVKKNQSVMLAKADGTKVNGRISKLIGFMGLEKMDIEEAGSGDIVAIAGFEALDVGDSVVDPNNPMPLDPLHIEEPTLSIVFSVNDGPLAGTEGKHVTSNKIAERLEAEMKTNIAMKYESTGEGKFKVSGRGELQITILAENMRREGFEFCMGRPEVIVKVEDGVKTEPFEHLVIDVPEEFSGAVIEKLGKRKAEMKTMAPTGDGQTRLEFEIPARGLIGFRSQFLTDTKGEGVMNHSFLEFRPFSGAVEKRNNGALISMENGVALGYSLFNLQERGVLFIEPQTKVYTGMIIGEHSRPNDLDVNPIKGKNLTNVRASGSDDAIKLVPPRKLSLERALEWIEEDELVEVTPVNVRVRKRYLDPTQRKRMEKAKEGHHHHHH", "soluble on expression in E. coli": "soluble"}
{"sequence": "MSLENKKMEFWFVVGSQHLYGEEALKEVRKNSETIVDELNKSANLPYKIIFKDLATSADKIKEIMKEVNYRDEVAGVITWMHTFSPAKMWIAGTKILQKPLLHFATQYNENIPWKTIDMDYMNLHQSAHGDREYGFINARLKKHNKVVVGYWKDKEVQKQVSDWMKVAAGYIASESIKVARFGDNMRNVAVTEGDKVEAQIQFGWTVDYFGIGDLVAEMDKVSQDEINKTYEEFKDLYILDPGENDPAFYEKQVKEQIKIEIGLRRFLEKGNYNAFTTNFEDLYGMKQLPGLAVQRLNAEGYGFAGEGDWKTAALDRLLKVMTNNTATGFMEDYTYELSRGNEKALGAHMLEVDPTFASDKPKVIVKPLGIGDKEDPARLIFNGSTGKGVAVSMLDLGTHYRLIINGLTAVKPDEDMPNLPVAKMVWKPEPNFIEGVKSWIYAGGGHHTVVSLELTVEQVYDWSRMVGLEAVIIDKDTKLRDIIEKTTEGHHHHHH", "soluble on expression in E. coli": "soluble"}
{"sequence": "MSLENNKAKMNEKEEIIFNSIRKNPYISQQELADILDLSRPTVANLISGLIKKGRILGKAYILNEAKQIVCIGGANVDRKFYIKDKAQLATSNPVRSTQSAGGVARNVGENLGRLGKEVILLTACGTDSDWEAVKNASNTYMNLDYVTAFPSIATGSYTAVLENNGDLLVALADMDAYDHLTPDVLAKNEGLLSQASAIIADLNCPKETLEYLGSFAEINSIPLVLVPVSSPKMSHLPERLDHVTWLICNRDESETHLEMTIENDEDWRLAAQKWLDLGVKNVIVTNGSKGAVAANNAEGIIFEPAIVIENIVDVTGAGDAFCSAVIYAWLEGKSLQEILKAGSVNAARTLESEYTVRQNLSTSQLQKDLEEFKEGHHHHHH", "soluble on expression in E. coli": "soluble"}
{"sequence": "MSLENRFDLRCYVVTGAGSVDEVVHTASAAARGGAGVVQVRSKPISPEAMRELASKVALEVARCSPTTRVLIDDHLHVASSLMREGLPIHGVHLGQDDMSVLEARELLGPEAIIGLTTGTLELVAAANELSDVLDYIGAGPFRKTPTKDSGRPPIGLAGYPPLVELSKVPIVAIGDVTPADVRALSATGVAGVAMVRAFSESDDPQQVAENVVANFELGRLSEGHHHHHH", "soluble on expression in E. coli": "soluble"}
{"sequence": "MSLEPDNQTPLKILVTGASGFVGLRVLTQAQNIGYALVAQSRSQQPYSFEQVLLDITPNTDWERALVGVDCVVHCAARVHQMQETEADALKAYRDVNTQGTLNLAKQAVSAGVKRFIFLSSIKVNGEQTKAGSAFQHDDQHIPSDPYGLSKYEAEQQLLELAAETGLEVVIIRPPLVYGEGVKANFLSMMNWVKKQIPLPLGAVGNMRSLVYLDNLVDLILVCCQHPKAAGEIFLVSDNHDVSLTTLLRTIAQAMQIRPRLLPIPQTGLQWLLRLLGKPELGQRLCGNLQLDIAHTQKTLHWSPPVSFEQGIARTVNFYLSQSSKEGHHHHHH", "soluble on expression in E. coli": "soluble"}
{"sequence": "MSLEQLATTSQQEILAERPQLTTKIAVDLDVKGIKEKDEDAWQNVQIYLAQINNEYADGSERYQYLVQTTVDKALRAKGYYNSQYQFVKTVSAEQKPLLTLNVQLDNQKVTIDEVDIQLQGDANTDEDFIELKKTAPNQGDSLAHNAYDDFKSHIEGLAFKKGYFDGQWLYHRLEVYPQNHSVDWRLAYDSGKRYRYGEINFIDNQIKEEYLTNILKIAPQQYYYASDLSLMTADYLSSNWFSSVLVEPKLNEKAKLVDLKIFFQPKKKNKVEIGAGFATQLGARLQLNWKKPWLNERGHSIDSRTYLSLPEQTLELGYNVPLRQNPLHYYYQFSGSLEHQNQQDTKSIAGSFGLQRFWTHETGWSFSAGIKSRYDSFTQANDKHKTLLVYPTAALNRTQTDGNRFPLWGDSQRITVNWGAKIFGSDVSFYSWKASSTWVRTYLDRHRLFLRGEVGQVHTKDFHQIPPTLRYFAGGDMSIRGFAYKSISPKEPKSGKLIGGSHLVTTTAEYQYRIYPDWWAAIFYDTGLVSDKFDHRALHSGAGVGVRWISPIGAIKFDIATPVKSPNNKRGVQFYIGLGSEEGHHHHHH", "soluble on expression in E. coli": "not soluble"}
{"sequence": "MSLERPLCISYIRFSKATQAEGSSLERQLQLSRTYAEEHGLVLDDKHSYQDLGKSAFTSEHVKEGEFGVFLEFVKQGRVPKGSVLLVESLDRLSRESVLTAFKQFQEILDAGIKIVTLSDKMEYTKEGFEANIGNIFISLGIMARANEESLRKSERICAAWRLKRKNLHNIKLTANCPGWLELTPDKKDFILKEDRVEIVKQIFELSLSGLGVKAISTILNKQKIEPFRSKIGWYQTTVRKILSNSAVIGEFQPHVFGSKHSKPVPDGELIKDYFPPIIDTDTFYAVQAKLKNGAHREGHHHHHH", "soluble on expression in E. coli": "soluble"}
{"sequence": "MSLEVISLSEKKGFNFNIIKNDPLDGHKGTNIGSISLDNIAPVFIDVANKEAFIDIGGMHARAKVEKGVKWITDKAAVEGDEAKEYWLCWVTTERNEQGPYYAGLTACYLLVNKAIRRGYKSMPEHVNMMDKSMKHHIIIDQIGDENKAILKDFLMNHDEGMWKHSSDALHQAFNEGHHHHHH", "soluble on expression in E. coli": "soluble"}
